Key:
recombinant human KDR [1] = target: T1, recombinant human KDR (human, UniProt P35968 20-764, limits assumed); assay: inhibition of KDR binding to VEGF, ligand-receptor binding assay
T1 construct: also called VEGFR2

recombinant human KDR [2] = target: T1, recombinant human KDR; assay: ELISA: antibody pre-incubated with 5 µg/ml recombinant human KDR, then transferred to a VEGF-coated plate; KDR bound to VEGF detected (OD405); blocked ligand VEGF
Procedure: (§1) An ELISA-based KDR-VEGF binding assay was developed and used to assess the potency of APX004 at blocking KDR binding to VEGF. A total of 2 μg/ml VEGF was coated on ELISA plates. APX004, the parental rabbit antibody R-36 or IgG1 isotype control antibody were pre-incubated with 5 μg/ml recombinant human KDR before being transferred to the VEGF-A coated ELISA plates. KDR bound to immobilized VEGF was detected by a mouse anti-KDR monoclonal antibody, followed by the addition of goat anti-mouse IgG conjugated with alkaline phosphatase (Fisher Scientific/Pierce Biotechnology, Rockford, Ill.). ELISA plates were developed with p-nitrophenyl phosphate substrate and absorbance at 405 nm was recorded. All experiments were performed in triplicate.

[3] = target: T2, human VEGF (coated in the selectivity ELISA) (human, UniProt P15692-4 27-191, limits assumed); assay: direct ELISA: 1 µg/ml protein coated, 1 µg/ml APX004, goat anti-human HRP-conjugated IgG
T2 construct: the sentence lists it last after 'rabbit Fc-fusion protein of'
T2 sequence (P15692 other isoform, or with tags, fused parts or gaps limits assumed): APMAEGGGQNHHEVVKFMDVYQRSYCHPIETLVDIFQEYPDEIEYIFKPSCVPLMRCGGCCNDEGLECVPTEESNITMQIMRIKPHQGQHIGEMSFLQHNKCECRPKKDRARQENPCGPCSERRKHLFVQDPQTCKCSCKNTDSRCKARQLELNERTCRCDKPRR
Procedure: (§2) Binding selectivity of APX004 was assessed by direct ELISA to VEGFR family proteins. A total of 1 μg/ml of rabbit Fc-fusion protein of human KDR, mouse KDR, human VEGFR1, human VEGFR3, human OX40L and human VEGF were coated on ELISA plates followed by incubation with 1 μg/ml of APX004. Bound APX004 was detected using goat anti-human HRP-conjugated IgG.

[4] = target: T3, rabbit Fc-fusion protein of human VEGFR1 (human; rabbit, UniProt P17948 27-758, limits assumed); assay: as above
T3 construct: also called Flt-1; not shown: rabbit immunoglobulin Fc
T3 sequence (P17948 27-758 limits assumed): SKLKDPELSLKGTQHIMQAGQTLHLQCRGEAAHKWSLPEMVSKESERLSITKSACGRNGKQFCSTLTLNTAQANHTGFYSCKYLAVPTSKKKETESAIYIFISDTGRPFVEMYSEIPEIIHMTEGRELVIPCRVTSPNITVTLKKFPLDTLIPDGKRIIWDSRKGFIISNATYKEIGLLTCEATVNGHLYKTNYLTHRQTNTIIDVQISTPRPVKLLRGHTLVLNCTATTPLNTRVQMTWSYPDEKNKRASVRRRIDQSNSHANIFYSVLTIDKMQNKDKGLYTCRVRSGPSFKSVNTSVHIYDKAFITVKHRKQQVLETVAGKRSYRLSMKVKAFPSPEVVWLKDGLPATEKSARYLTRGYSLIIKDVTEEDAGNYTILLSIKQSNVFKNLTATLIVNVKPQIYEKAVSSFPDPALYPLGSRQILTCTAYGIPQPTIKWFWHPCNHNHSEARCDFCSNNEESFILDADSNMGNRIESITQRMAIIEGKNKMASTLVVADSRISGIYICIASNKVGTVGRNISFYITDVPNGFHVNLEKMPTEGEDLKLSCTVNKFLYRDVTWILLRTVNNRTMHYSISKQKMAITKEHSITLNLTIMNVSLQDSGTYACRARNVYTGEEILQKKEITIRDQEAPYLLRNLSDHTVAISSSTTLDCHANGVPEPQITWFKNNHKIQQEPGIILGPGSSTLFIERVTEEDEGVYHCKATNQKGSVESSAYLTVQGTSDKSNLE
Procedure: as §2

[5] = target: T4, rabbit Fc-fusion protein of mouse KDR (mouse; rabbit, UniProt P35918 20-762, limits assumed); assay: as above
T4 construct: not shown: rabbit immunoglobulin Fc
T4 sequence (P35918 20-762 limits assumed): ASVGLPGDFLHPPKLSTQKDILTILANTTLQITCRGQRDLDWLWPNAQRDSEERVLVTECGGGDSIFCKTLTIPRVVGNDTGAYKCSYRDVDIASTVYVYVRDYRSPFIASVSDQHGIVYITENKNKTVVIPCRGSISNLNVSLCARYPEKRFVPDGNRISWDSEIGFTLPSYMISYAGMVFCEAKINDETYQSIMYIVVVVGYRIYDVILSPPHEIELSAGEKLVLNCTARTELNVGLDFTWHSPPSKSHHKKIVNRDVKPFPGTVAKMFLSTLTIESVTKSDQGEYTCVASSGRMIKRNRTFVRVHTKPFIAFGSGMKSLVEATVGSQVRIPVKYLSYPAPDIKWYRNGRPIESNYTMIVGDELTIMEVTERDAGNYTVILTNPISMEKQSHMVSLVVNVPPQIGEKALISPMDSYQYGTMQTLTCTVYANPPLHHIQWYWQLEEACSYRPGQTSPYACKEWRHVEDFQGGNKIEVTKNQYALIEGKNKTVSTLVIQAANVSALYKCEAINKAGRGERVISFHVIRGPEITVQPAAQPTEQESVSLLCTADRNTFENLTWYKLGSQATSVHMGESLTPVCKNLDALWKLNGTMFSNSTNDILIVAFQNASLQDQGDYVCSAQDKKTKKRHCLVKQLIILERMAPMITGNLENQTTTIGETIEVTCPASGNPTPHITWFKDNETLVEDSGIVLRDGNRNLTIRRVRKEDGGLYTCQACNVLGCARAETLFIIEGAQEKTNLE
Procedure: as §2

[6] = target: T5, rabbit Fc-fusion protein of human VEGFR3 (human; rabbit, UniProt P35916 25-775, limits assumed); assay: as above
T5 construct: not shown: rabbit immunoglobulin Fc
T5 sequence (looked up): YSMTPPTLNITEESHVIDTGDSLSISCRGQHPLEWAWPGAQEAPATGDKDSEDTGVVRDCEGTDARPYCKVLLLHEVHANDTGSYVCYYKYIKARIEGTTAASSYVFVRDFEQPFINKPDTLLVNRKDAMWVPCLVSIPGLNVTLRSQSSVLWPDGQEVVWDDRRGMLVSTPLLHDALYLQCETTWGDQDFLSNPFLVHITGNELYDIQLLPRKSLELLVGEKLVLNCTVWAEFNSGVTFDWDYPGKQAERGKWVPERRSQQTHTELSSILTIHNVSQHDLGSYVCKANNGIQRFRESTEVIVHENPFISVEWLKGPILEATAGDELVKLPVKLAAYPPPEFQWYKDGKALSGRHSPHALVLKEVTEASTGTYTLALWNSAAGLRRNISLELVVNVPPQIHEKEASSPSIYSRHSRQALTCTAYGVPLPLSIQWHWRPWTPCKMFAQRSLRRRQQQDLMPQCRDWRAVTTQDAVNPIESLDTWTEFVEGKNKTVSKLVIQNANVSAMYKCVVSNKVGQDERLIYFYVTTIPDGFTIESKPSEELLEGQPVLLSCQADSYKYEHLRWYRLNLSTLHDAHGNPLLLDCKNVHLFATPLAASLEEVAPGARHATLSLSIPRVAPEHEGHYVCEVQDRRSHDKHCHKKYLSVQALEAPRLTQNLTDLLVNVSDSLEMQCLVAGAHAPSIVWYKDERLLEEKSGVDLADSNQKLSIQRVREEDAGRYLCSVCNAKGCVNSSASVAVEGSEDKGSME
Procedure: as §2

recombinant human KDR [7] = target: T1, recombinant human KDR; assay: method not stated
mouse KDR = target: T6, mouse KDR (mouse, UniProt P35918 20-762, limits assumed); assay: restated in the summary of the Examples
T6 construct: also called murine KDR
T6 sequence (P35918 20-762 limits assumed): as the sequence (P35918 20-762 limits assumed) above

recombinant human KDR [8] = target: T1, recombinant human KDR; assay: competition ELISA: APX004 pre-incubated with 5 µg/ml recombinant human KDR, then on coated VEGF-A; bound KDR detected
Procedure: as §1

T1 sequence (P35968 20-764 limits assumed): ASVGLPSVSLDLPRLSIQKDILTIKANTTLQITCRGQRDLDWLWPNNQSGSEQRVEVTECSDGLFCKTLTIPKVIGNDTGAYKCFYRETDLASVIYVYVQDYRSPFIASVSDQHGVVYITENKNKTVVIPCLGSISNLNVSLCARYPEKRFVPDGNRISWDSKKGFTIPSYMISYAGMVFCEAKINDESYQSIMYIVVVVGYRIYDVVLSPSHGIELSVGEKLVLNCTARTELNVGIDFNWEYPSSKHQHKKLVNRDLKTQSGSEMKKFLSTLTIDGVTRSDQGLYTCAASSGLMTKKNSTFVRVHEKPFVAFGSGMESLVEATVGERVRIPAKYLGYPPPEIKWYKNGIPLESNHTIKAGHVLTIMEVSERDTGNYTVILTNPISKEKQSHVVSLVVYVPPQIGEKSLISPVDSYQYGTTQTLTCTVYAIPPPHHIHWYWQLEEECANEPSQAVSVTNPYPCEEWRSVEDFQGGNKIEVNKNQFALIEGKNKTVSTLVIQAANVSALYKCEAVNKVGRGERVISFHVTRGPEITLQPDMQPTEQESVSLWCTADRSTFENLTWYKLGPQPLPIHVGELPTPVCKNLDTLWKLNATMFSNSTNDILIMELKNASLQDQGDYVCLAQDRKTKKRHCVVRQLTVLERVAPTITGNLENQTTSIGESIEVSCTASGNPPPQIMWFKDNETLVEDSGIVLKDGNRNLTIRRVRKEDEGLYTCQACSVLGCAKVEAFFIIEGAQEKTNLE

IC50 (recombinant human KDR [1]) [nM]	Binder	other results
32.9	rabbit anti-KDR antibody clone 92 (antibody, V domains shown, rabbit monoclonal antibody, recombinantly expressed and purified for characterization) VH: QSVEESGGRLVTPGTPLTLTCTVSGFSLSSNAMSWVRQAPGEGLEWIGTISSSGSTYYATWVKGRFTISKTSTTVDLKMTSLTAADTATYFCARGDDDVSDYFYYFPIWGPGTLVTVSS VL: AVVLTQTASPVSGAVGGTVTIKCQASQNIYNNLAWYRQKPGQPPKLLIYAASKLASGVPSRFSGSRSGTQFTLSISDLECADAATYYCQSYYFDSSSTDAAFGGGTEVVVK	
7.54	rabbit anti-KDR antibody clone 43 (antibody, V domains shown, rabbit monoclonal antibody, recombinantly expressed and purified for characterization) VH: QSVEESGGRLVTPGTPLTLTCTVSGFSLSSYAMSWFRQAPGKGLEWIGLIRSSGATYYASWAKGRFTISKASTTVDLKFTSPTTEDTATYFCARVLWPGDIAYAYHNIWGPGTLVTVSS VL: DLVMTQTPSPVSAAVGGTVTINCQASEEIGGNLAWYQQKPGQPPKLLIYSASTLTSGVPSRFKGSGSGTEYTLTISDLECADAATYYCQYTYYGFSYVGPFGGGTEVVVK	
9.77	rabbit anti-KDR antibody clone 83 (antibody, V domains shown, rabbit monoclonal antibody, recombinantly expressed and purified for characterization) VH: QSLEESGGRLVTPGTPLTLTCTVSGIDLSAYAMSWVRQAPGKGLEWIGLIRSSGATYYASWAKGRFTISKTSTTVDLKMTSPTTEDTATYFCARVLWPGEIAYAYHNIWGPGTLVTVSS VL: DVVMTQTPASVSEPVGGTVTINCQASEEIGGNLAWYQQKPGQPPKLLIYSASSLTSGVPSRFKGSESGTEYTLTISDLECADAATYYCQYSYYGFNYVGPFGGGTEVVVK	
4.56	rabbit anti-KDR antibody clone 81 (antibody, V domains shown, rabbit monoclonal antibody, recombinantly expressed and purified for characterization) VH: QSVEESGGRLVTPGTPLTLTCTVSGFSLSTYAMSWFRQAPGKGLEWIGLIRSSGATYYASWAKGRFTISKASTTVDLKFTSPTTEDTATYFCARVLWPGDIAYAYHNIWGPGTLVTVSS VL: DLVMTQTPSPVSAAVGGTVTINCQASEEIGGNLAWYQQKPGQPPKLLIYSASTLTSGVPSRFKGSGSGTEYTLTINDLECADAATYYCQYPYYGFSYVGPFGGGTEVVVK	
5.95	rabbit anti-KDR antibody clone 27 (antibody, V domains shown, rabbit monoclonal antibody, recombinantly expressed and purified for characterization) VH: QSVEESGGRLVTPGTPLTLTCTASGFALNDFAMSWVRQAPGKGLEWIGMIASSGNTFYASWAKGRFTISKTSTTVDLKFTSPTTEDTATYFCARVLWPGYIAYAYHNIWGPGTLVTVSS VL: DPVLTQTPASVSAVVGGTVTINCQTSEDIASNLAWYQQKSGQRPKLLIYEASKLASGVPSRFKGSGSGTEYTLTISDLECADAATYYCQYTYYGSSYLGAFGGGTEVVVK	

Further lines, the binder ahead of its results:

Binder	IC50 (recombinant human KDR [1]) [nM]	other results
clone 36 rabbit anti-KDR antibody (antibody, V domains shown, rabbit IgG, recombinantly expressed in 293-6E cells; also called R-36; parental rabbit monoclonal antibody 36) VH: QSVEESGGRLVTPGTPLTLTCTVSGIDLNNYAMSWVRQAPGKGLEWIGIIGSSGSIFYASWAKGRITISKTSTTVDLKFTSLTTEDTATYFCARVLWAGSVAYAYHNIWGPGTLVTVSS VL: DPVMTQTPASVSEPVGGTVTINCQASEELGSNLAWYQQKPGQPPKLLIYSASTLASGVPSRFKGSGSGTEYTLTISDLECADAATYYCQYTYFGSSYLGAFGGGTEVVVK	6.25	IC50 (recombinant human KDR [2]): 3.1 nM
rabbit anti-KDR antibody clone 15 (antibody, V domains shown, rabbit monoclonal antibody, recombinantly expressed and purified for characterization) VH: QSLEESGGDLVKPGTSLTLTCTASGFSFSARHFMYWVRQAPGKGLEWIGCIDIGSGSTYYTSWAKDRFTISKPSSTTVTLQMTSLTAADTATYFCARSSGYPYYFTLWGPGTLVTVSS VL: AVVLTQTTSSVSADVGGTVTIKCQASENIYSLLAWYQQKPGQPPKLLIYSASDLASGVPSRFSGSGFGTEFTLTISDLECADAATYHCQSYYYSGSSADTGAFGGGTEVVVK	17.5	
rabbit anti-KDR antibody clone 24 (antibody, V domains shown, rabbit monoclonal antibody, recombinantly expressed and purified for characterization) VH: QSVEESGGRLVTPGTPLTLTCTVSGFSLSSNAMSWVRQAPGEGLEWIGTISSSGSTYYATWVKGRFTISKTSTTVDLKMTSLTAADTATYFCARGDDDVSDYFYYFPIWGPGTLVTVSS VL: AVVLTQTASPVSGAVGGTVTIKCQASQNIYNNLAWYRQKPGQPPKLLIYAASKLASGVPSRFSGSRSGTQFTLSISDLECADAATYYCQSYYFDSSSTDAAFGGGTEVVVK	19.8	
rabbit anti-KDR antibody clone 23 (antibody, V domains shown, rabbit monoclonal antibody, recombinantly expressed and purified for characterization) VH: QSVEESGGRLVTPGTPLTLTCTVSGFSLSSNAMSWVRQAPGEGLEWIGTISSSGSTYYATWVKGRFTISKTSTTVDLKMTSLTAADTATYFCARGDDDVSDYFYYFPIWGPGTLVTVSS VL: AVVLTQTASPVSGAVGGTVTIKCQASQNIYNNLAWYRQKPGQPPKLLIYAASKLASGVPSRFSGSRSGTQFTLSISDLECADAATYYCQSYYFDSSSTDAAFGGGTEVVVK	21.4	
APX004 (humanized clone 36 anti-KDR antibody) (antibody, human IgG1, kappa, V domains shown, also called humanized 36) VH: EVQLVESGGGLVQPGGSLRLSCAASGFDLSSYAMSWVRQAPGKGLEWVGIIGSGGSTYYASWAKGRFTISKDSSKNTVYLQMNSLRAEDTAVYFCARVLWAGSVAYAYHNIWGPGTLVTVSS VL: DIQMTQSPSSLSASVGDRVTINCQASEELGSNLAWYQQKPGKPPKLLIYSASTLASGVPSRFSGSGSGTDYTLTISSLQPEDFATYYCQYTYFGSSYLGAFGGGTKVEIKR		binding result [3]: no binding (tested: 1 µg/ml); binding result [4]: no binding (tested: 1 µg/ml); binding result [5]: binds; binding result [6]: no binding (tested: 1 µg/ml); Kd (recombinant human KDR [7]): 0.053 nM; binding result (mouse KDR): binds; IC50 (recombinant human KDR [8]): 2.6 nM
